Test results from publication PMC9666628 (Nature Communications, 2022).
Substitutions are numbered along the chain they refer to. Several values for one entry are separate records, joined by “and”; a condition that tells them apart may be missing. Equal entries are not always repeated. Each block holds one binder with its values, some of them ahead of it.

Legend:
Settings in all cases: both partners purified
[1] = target: T1, Cbx7.V1 chromodomain variant (protein used for BLI) (human, UniProt O95931 7-66, E8D (printed as the back-mutation D8E) | Q9D | V10I (printed as the …)); assay: BLI; biotinylated peptide on streptavidin biosensor tips, chromodomain in solution at 5 or 1 µM; 25 °C; 25 mM HEPES pH 7.0, 150 mM NaCl, 1 mg/ml BSA, 0.01% Tween-20; steady-state fit, Langmuir model; values of single replicates
T1 construct: chromodomain of human Cbx7 with the six substitutions of the phage-selected variant V1; residues numbered on full-length Cbx7; for BLI they were probably still on the protein; source: E. coli BL21(DE3), purified (Ni-NTA)
T1 sequence: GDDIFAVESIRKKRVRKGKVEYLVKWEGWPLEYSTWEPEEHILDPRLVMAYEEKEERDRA

Cbx7.V1 back-mutant I10V = target: T2, Cbx7.V1 back-mutant I10V (human, UniProt O95931 7-66, E8D (printed as the back-mutation D8E) | Q9D | K33E | P37L (printed as the …)); assay: as above
T2 construct: chromodomain of human Cbx7, variant V1 with residue 10 put back to the wild type; residues numbered on full-length Cbx7; Tags probably still on the protein in BLI (removal is told for FP and ITC only); source: E. coli BL21(DE3), purified (Ni-NTA)
T2 sequence: T1 sequence with I4V

Cbx7.V1 back-mutant D8E = target: T3, Cbx7.V1 back-mutant D8E (human, UniProt O95931 7-66, Q9D | V10I (printed as the back-mutation I10V) | K33E | P37L (printed as the …)); assay: as above
T3 construct: chromodomain of human Cbx7, variant V1 with residue 8 put back to the wild type; residues numbered on full-length Cbx7; Tags probably still on the protein in BLI (removal is told for FP and ITC only); source: E. coli BL21(DE3), purified (Ni-NTA)
T3 sequence: T1 sequence with D2E

Cbx7.V1 back-mutant L37P = target: T4, Cbx7.V1 back-mutant L37P (human, UniProt O95931 7-66, E8D (printed as the back-mutation D8E) | Q9D | V10I (printed as the …)); assay: as above
T4 construct: chromodomain of human Cbx7, variant V1 with residue 37 put back to the wild type; residues numbered on full-length Cbx7; Tags probably still on the protein in BLI (removal is told for FP and ITC only); source: E. coli BL21(DE3), purified (Ni-NTA)
T4 sequence: T1 sequence with L31P

Cbx7.V1 back-mutant E38K = target: T5, Cbx7.V1 back-mutant E38K (human, UniProt O95931 7-66, E8D (printed as the back-mutation D8E) | Q9D | V10I (printed as the …)); assay: as above
T5 construct: chromodomain of human Cbx7, variant V1 with residue 38 put back to the wild type; residues numbered on full-length Cbx7; Tags probably still on the protein in BLI (removal is told for FP and ITC only); source: E. coli BL21(DE3), purified (Ni-NTA)
T5 sequence: T1 sequence with E32K

Cbx7.V1 back-mutant E33K = target: T6, Cbx7.V1 back-mutant E33K (human, UniProt O95931 7-66, E8D (printed as the back-mutation D8E) | Q9D | V10I (printed as the …)); assay: as above
T6 construct: chromodomain of human Cbx7, variant V1 with residue 33 put back to the wild type; residues numbered on full-length Cbx7; Tags probably still on the protein in BLI (removal is told for FP and ITC only); source: E. coli BL21(DE3), purified (Ni-NTA)
T6 sequence: T1 sequence with E27K

[2] = target: T7, wild-type Cbx2 chromodomain (human, UniProt Q14781 9-62); assay: fluorescence polarisation; 0.5 nM FITC-labeled peptide, chromodomain serially diluted (wild types 200-0.2 µM; Cbx7.V1 and Cbx.VDs 50 µM-50 nM); 25 °C, 30 min; 25 mM HEPES pH 7.5, 150 mM NaCl, 1 mM DTT, 0.01% TritonX-100; one-site total binding model; values of single replicates
T7 construct: chromodomain of human Cbx2; also called Cbx2.wt; source: E. coli BL21(DE3), purified (Ni-NTA), tags removed with TEV protease
T7 sequence: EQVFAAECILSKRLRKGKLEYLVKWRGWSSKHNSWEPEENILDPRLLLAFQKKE

[3] = target: T8, Cbx7 chromodomain with the double substitution Q9D/K33E (human, UniProt O95931 7-66, Q9D | K33E); assay: as above
T8 construct: chromodomain of human Cbx7; residues numbered on full-length Cbx7; also called Cbx7.VD; source: E. coli BL21(DE3), purified (Ni-NTA), tags removed with TEV protease
T8 sequence: T1 sequence with D2E, I4V, L31P, E32K

[4] = target: T9, wild-type Cbx7 chromodomain (human, UniProt O95931 7-66); assay: as above
T9 construct: chromodomain of human Cbx7; also called Cbx7.wt; source: E. coli BL21(DE3), purified (Ni-NTA), tags removed with TEV protease
T9 sequence: T1 sequence with D2E, D3Q, I4V, E27K, L31P, E32K

Cbx7 chromodomain K33E = target: T10, Cbx7 chromodomain K33E (human, UniProt O95931 7-66, K33E); assay: as above
T10 construct: chromodomain of human Cbx7; residues numbered on full-length Cbx7; also called Cbx7 K33E; source: E. coli BL21(DE3), purified (Ni-NTA), tags removed with TEV protease
T10 sequence: T1 sequence with D2E, D3Q, I4V, L31P, E32K

[5] = target: T11, Cbx7.V1 chromodomain variant (tags removed, used for FP) (human, UniProt O95931 7-66, E8D (printed as the back-mutation D8E) | Q9D | V10I (printed as the …)); assay: as above
T11 construct: chromodomain of human Cbx7 with the six substitutions of the phage-selected variant V1; residues numbered on full-length Cbx7; source: E. coli BL21(DE3), purified (Ni-NTA), tags removed with TEV protease
T11 sequence: T1 sequence

[6] = target: T8, Cbx7 chromodomain with the double …; assay: as above; remark: listed apart in the source
[7] = target: T9, wild-type Cbx7 chromodomain; assay: as above; remark: listed apart in the source
Cbx7 chromodomain Q9D = target: T12, Cbx7 chromodomain Q9D (human, UniProt O95931 7-66, Q9D); assay: as above
T12 construct: chromodomain of human Cbx7; residues numbered on full-length Cbx7; also called Cbx7 Q9D; source: E. coli BL21(DE3), purified (Ni-NTA), tags removed with TEV protease
T12 sequence: T1 sequence with D2E, I4V, E27K, L31P, E32K

[8] = target: T13, wild-type Cbx5 chromodomain (human, UniProt P45973 18-75); assay: as above
T13 construct: chromodomain of human Cbx5; also called Cbx5.wt; source: E. coli BL21(DE3), purified (Ni-NTA), tags removed with TEV protease
T13 sequence (P45973 18-75, looked up): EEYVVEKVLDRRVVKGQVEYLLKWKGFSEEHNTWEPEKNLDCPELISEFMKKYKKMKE

[9] = target: T14, wild-type Cbx1 chromodomain (human, UniProt P83916 20-73); assay: as above
T14 construct: chromodomain of human Cbx1; also called Cbx1.wt; source: E. coli BL21(DE3), purified (Ni-NTA), tags removed with TEV protease
T14 sequence (P83916 20-73, looked up): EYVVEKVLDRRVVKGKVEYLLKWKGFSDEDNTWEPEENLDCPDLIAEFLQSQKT

Kd [1]: 4.9 µM and 4.2 µM
Kd (Cbx7.V1 back-mutant I10V): 4 µM and 3 µM
Kd (Cbx7.V1 back-mutant D8E): 5.3 µM and 4.7 µM
Kd (Cbx7.V1 back-mutant L37P): 2.7 µM and 3.3 µM
Kd (Cbx7.V1 back-mutant E38K): 1.9 µM and 2.1 µM
Kd (Cbx7.V1 back-mutant E33K): 8.5 µM and 12 µM
B1: H3K9me3 peptide, biotinylated (peptide)
chain: ARTKQTARKSTGGKAPR
modifications: trimethyl-lysine at K9; biotin followed by an aminohexanoic acid linker at the N-terminus

Kd [2]: 117 µM and 101 µM and 84 µM
Kd [3]: 4.8 µM and 5.2 µM
Kd [4]: 138 µM and 84 µM and 109 µM
Kd (Cbx7 chromodomain K33E): 17.5 µM and 21 µM and 19 µM
Kd [5]: 4.5 µM and 3.9 µM and 3.4 µM
Kd [6]: 5.1 µM and 4.7 µM and 5.2 µM
Kd [7]: 115 µM and 79 µM and 143 µM
Kd (Cbx7 chromodomain Q9D): 115 µM and 101 µM and 84 µM
Binder: KQLATKAARKSAPATGGVK (trimethyl-lysine at K27; fluorescein isothiocyanate (FITC) at the N-terminus) [H3K27me3 peptide, FITC-labeled]

Kd [3]: 8.6 µM and 7.5 µM
Kd [4]: 33.5 µM and 37 µM and 23 µM
Kd [8]: 5.6 µM and 5 µM and 4.8 µM
Kd [9]: 0.453 µM and 0.543 µM and 0.529 µM
Kd (Cbx7 chromodomain K33E): 24 µM and 18 µM and 19 µM
Kd [5]: 7.5 µM and 5.7 µM and 7.8 µM
Kd [6]: 8.4 µM and 7.4 µM and 8.2 µM
Kd [7]: 41 µM and 27 µM and 23 µM
Kd (Cbx7 chromodomain Q9D): 11 µM and 9.7 µM and 9.4 µM
Binder: ARTKQTARKSTGGKAPR (trimethyl-lysine at K9; fluorescein isothiocyanate (FITC) at the N-terminus) [H3K9me3 peptide, FITC-labeled]
